Measured values published in patent US20250074949A1 (BRIGHAM AND WOMEN S HOSPITAL, published 2025).

Biological target: T1, mouse LY6A (mouse, UniProt P05533 27-112)
T1 construct: whole, on cells
T1 sequence: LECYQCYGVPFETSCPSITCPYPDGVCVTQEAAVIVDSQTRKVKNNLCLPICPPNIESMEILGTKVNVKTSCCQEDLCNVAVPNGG
Assay: AAV binding to LY6A-transfected HEK293T cells on ice, bound viral genomes counted by qPCR

B1: AAV.CPP.21 (other)
chain: MAADGYLPDWLEDNLSEGIREWWALKPGAPQPKANQQHQDNARGLVLPGYKYLGPGNGLDKGEPVNAADAAALEHDKAYDQQLKAGDNPYLKYNHADAEFQERLKEDTSFGGNLGRAVFQAKKRLLEPLGLVEEAAKTAPGKKRPVEQSPQEPDSSAGIGKSGAQPAKKRLNFGQTGDTESVPDPQPIGEPPAAPSGVGSLTMASGGGAPVADNNEGADGVGSSSGNWHCDSQWLGDRVITTSTRTWALPTYNNHLYKQISNSTSGGSSNDNAYFGYSTPWGYFDFNRFHCHFSPRDWQRLINNNWGFRPKRLNFKLFNIQVKEVTDNNGVKTIANNLTSTVQVFTDSDYQLPYVLGSAHEGCLPPFPADVFMIPQYGYLTLNDGSQAVGRSSFYCLEYFPSQMLRTGNNFQFSYEFENVPFHSSYAHSQSLDRLMNPLIDQYLYYLSKTINGSGQNQQTLKFSVAGPSNMAVQGRNYIPGPSYRQQRVSTTVTQNNNSEFAWPGASSWALNGRNSLMNPGPAMASHKEGEDRFFPLSGSLIFGKQGTGRDNVDADKVMITNEEEIKTTNPVATESYGQVATNHQSAQTVSALFKAQAQTGWVQNQGILPGMVWQDRDVYLQGPIWAKIPHTDGNFHPSPLMGGFGMKHPPPQILIKNTPVPADPPTAFNKDKLNSFITQYSTGQVSVEIEWELQKENSKRWNPEIQYTSNYYKSNNVEFAVNTEGVYSEPRPIGTRYLTRNL
notes: Whole recombinant AAV particle in the assay; also called Bip2.6 insert TVSALFK
  binding result: no binding (tested: MOI of 10000)

B2: AAV.CPP.16 (other)
chain: MAADGYLPDWLEDNLSEGIREWWALKPGAPQPKANQQHQDNARGLVLPGYKYLGPGNGLDKGEPVNAADAAALEHDKAYDQQLKAGDNPYLKYNHADAEFQERLKEDTSFGGNLGRAVFQAKKRLLEPLGLVEEAAKTAPGKKRPVEQSPQEPDSSAGIGKSGAQPAKKRLNFGQTGDTESVPDPQPIGEPPAAPSGVGSLTMASGGGAPVADNNEGADGVGSSSGNWHCDSQWLGDRVITTSTRTWALPTYNNHLYKQISNSTSGGSSNDNAYFGYSTPWGYFDFNRFHCHFSPRDWQRLINNNWGFRPKRLNFKLFNIQVKEVTDNNGVKTIANNLTSTVQVFTDSDYQLPYVLGSAHEGCLPPFPADVFMIPQYGYLTLNDGSQAVGRSSFYCLEYFPSQMLRTGNNFQFSYEFENVPFHSSYAHSQSLDRLMNPLIDQYLYYLSKTINGSGQNQQTLKFSVAGPSNMAVQGRNYIPGPSYRQQRVSTTVTQNNNSEFAWPGASSWALNGRNSLMNPGPAMASHKEGEDRFFPLSGSLIFGKQGTGRDNVDADKVMITNEEEIKTTNPVATESYGQVATNHQSAQTVSALKAQAQTGWVQNQGILPGMVWQDRDVYLQGPIWAKIPHTDGNFHPSPLMGGFGMKHPPPQILIKNTPVPADPPTAFNKDKLNSFITQYSTGQVSVEIEWELQKENSKRWNPEIQYTSNYYKSNNVEFAVNTEGVYSEPRPIGTRYLTRNL
notes: Whole recombinant AAV particle in the assay; also called Bip2.1 insert TVSALK
  binding result: no binding (tested: MOI of 10000)
